In paper PMC3794606, “Transactivation specificity is conserved among p53 family proteins and depends on a response element sequence code” (Nucleic Acids Research, 2013):

Tests used:
p73 DBD S139F [1] = target: T1, p73 DBD S139F (human, UniProt O15350 115-312, S139F); test: fluorescence polarization; Hill 1.5 ± 0.2; FP: 50 nM fluorescein-DNA, 0-20000 nM protein, 30 min on ice then room temperature; buffer, salt and pH not stated. Crystals: 0.1 M Tris pH 8.5, 50-125 mM sodium acetate, 20-24% PEG 3350, room temperature; settings: protein: recombinant; chain copies: 2; label: fluorescein; self-complementary
T1 sequence: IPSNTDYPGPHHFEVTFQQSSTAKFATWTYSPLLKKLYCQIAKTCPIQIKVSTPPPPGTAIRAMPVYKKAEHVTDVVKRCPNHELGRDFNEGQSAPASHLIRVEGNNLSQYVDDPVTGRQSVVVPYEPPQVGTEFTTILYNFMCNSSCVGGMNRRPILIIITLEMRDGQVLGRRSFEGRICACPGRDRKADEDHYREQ

[2] = target: T2, deltaNp73delta isoform WT (UniProt O15350-4 63-403); test: fluorescence polarization; FP: 50 nM fluorescein-DNA, 0-20000 nM protein, 30 min on ice then room temperature; buffer, salt and pH not stated. Crystals: 0.1 M Tris pH 8.5, 50-125 mM sodium acetate, 20-24% PEG 3350, room temperature; settings: protein: recombinant, chain copies: 4, label: fluorescein
T2 sequence: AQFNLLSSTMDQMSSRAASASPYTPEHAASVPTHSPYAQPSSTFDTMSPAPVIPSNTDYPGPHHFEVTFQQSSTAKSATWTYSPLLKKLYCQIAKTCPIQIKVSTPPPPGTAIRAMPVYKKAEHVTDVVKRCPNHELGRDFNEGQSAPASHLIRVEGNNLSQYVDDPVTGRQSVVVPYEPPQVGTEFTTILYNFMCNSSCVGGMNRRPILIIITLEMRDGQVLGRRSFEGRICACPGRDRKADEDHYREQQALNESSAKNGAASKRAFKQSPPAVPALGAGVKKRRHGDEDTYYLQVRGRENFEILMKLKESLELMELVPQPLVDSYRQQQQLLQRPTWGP

p73 DBD S139F [3] = target: T1, p73 DBD S139F; test: fluorescence polarization; Hill 1.7 ± 0.1; FP: 50 nM fluorescein-DNA, 0-20000 nM protein, 30 min on ice then room temperature; buffer, salt and pH not stated. Crystals: 0.1 M Tris pH 8.5, 50-125 mM sodium acetate, 20-24% PEG 3350, room temperature; settings: protein: recombinant; chain copies: 2; label: fluorescein; self-complementary
[4] = target: the molecule itself; test: crystal structure; p73DBD S139F mixed at 2:1 molar ratio with annealed 20 bp DNA (…); hanging drop, 0.1 M Tris pH 8.5, 50-125 mM sodium acetate, 20-24% PEG 3350, room temperature; 3.7 A; asymmetric unit holds two protein molecules and one 10 bp half-site, the tetramer is made by crystal symmetry
p73 DBD S139F [5] = target: T1, p73 DBD S139F; test: fluorescence polarization; Hill 1.9 ± 0.2; FP: 50 nM fluorescein-DNA, 0-20000 nM protein, 30 min on ice then room temperature; buffer, salt and pH not stated. Crystals: 0.1 M Tris pH 8.5, 50-125 mM sodium acetate, 20-24% PEG 3350, room temperature; settings: protein: recombinant; chain copies: 2; label: fluorescein

B1: 12mer GGGCA half-site (dsDNA)
DNA 1: TGGGCATGCCCA
DNA 2: TGGGCATGCCCA
- Kd (p73 DBD S139F [1]): 1540 nM

B2: 20mer GAACA full-site (0/4 RY) (dsDNA)
DNA 1: GAACATGTTCGAACATGTTC
DNA 2: GAACATGTTCGAACATGTTC
- Kd ([2]; self-complementary): 940 nM
- Kd (p73 DBD S139F [3]): 4480 nM

B3: p73DBD S139F (human p73 DNA-binding domain, residues 115-312, S139F mutant) (domain or fragment, UniProt O15350 115-312, looked up)
chain: T1 sequence
notes: Crystallised with a 20 bp GAACA full-site DNA; On the DNA it forms a tetramer (dimer of dimers); also called p73 S139F DBD; S139F DBD mutant
- stoichiometry N [4]: 4

B4: 20mer GGGCA full-site (4/4 RY) (dsDNA)
DNA 1: GGGCATGCCCGGGCATGCCC
DNA 2: GGGCATGCCCGGGCATGCCC
- Kd (p73 DBD S139F [5]): 230 nM
- Kd [2]: 160 nM
